# Values of other authors in paper PMC5713020.
# Where “and” joins values, the source holds several entries; their conditions need not be identical. Equal entries are not always repeated.
# How the values were obtained:
# p53 (Homo sapiens) = p53 (Homo sapiens) (UniProt P04637); experiment: SPR
# MDM4 (Homo sapiens) [1] = target: MDM4 (Homo sapiens) (UniProt O15151); experiment: SPR
# MDM4 (Homo sapiens) [2] = target: MDM4 (Homo sapiens) (UniProt O15151); experiment: SPR (Langmuir isotherm)
# p73 (Homo sapiens) = p73 (Homo sapiens) (UniProt O15350); experiment: AFS
# p63 DBD (Homo sapiens) = p63 DBD (Homo sapiens) (UniProt Q9H3D4); experiment: AFS
# p63 DBD (Homo sapiens), sequence (Q9H3D4 166-362): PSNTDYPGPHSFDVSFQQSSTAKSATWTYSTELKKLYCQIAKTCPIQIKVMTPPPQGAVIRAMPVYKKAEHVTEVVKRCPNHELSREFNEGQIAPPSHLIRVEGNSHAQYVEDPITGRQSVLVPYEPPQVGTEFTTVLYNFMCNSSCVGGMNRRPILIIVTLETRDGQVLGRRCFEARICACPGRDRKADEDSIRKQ
# p28 p28 peptide, sequence (P00282 70-97): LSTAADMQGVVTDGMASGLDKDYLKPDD
# MDM2, sequence (Q00987 whole entry): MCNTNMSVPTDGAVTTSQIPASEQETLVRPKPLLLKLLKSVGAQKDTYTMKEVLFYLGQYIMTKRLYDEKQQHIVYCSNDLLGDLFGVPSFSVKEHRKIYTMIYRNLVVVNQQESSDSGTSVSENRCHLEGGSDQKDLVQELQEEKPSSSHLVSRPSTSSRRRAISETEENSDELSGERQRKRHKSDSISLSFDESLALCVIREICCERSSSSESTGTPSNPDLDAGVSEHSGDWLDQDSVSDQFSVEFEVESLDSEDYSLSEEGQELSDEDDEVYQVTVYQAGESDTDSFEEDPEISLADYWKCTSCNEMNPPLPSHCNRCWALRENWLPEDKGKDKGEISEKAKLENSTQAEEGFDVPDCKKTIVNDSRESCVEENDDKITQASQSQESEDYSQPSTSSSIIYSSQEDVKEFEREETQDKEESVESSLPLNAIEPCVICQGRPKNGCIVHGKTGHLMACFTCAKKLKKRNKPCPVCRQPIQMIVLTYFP
# Azurin, sequence (P00282 21-148): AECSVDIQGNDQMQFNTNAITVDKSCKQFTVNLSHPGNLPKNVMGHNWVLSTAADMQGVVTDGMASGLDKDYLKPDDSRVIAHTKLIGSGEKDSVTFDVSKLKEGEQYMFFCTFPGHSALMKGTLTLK
# MDM4 (Homo sapiens), sequence (O15151 whole entry): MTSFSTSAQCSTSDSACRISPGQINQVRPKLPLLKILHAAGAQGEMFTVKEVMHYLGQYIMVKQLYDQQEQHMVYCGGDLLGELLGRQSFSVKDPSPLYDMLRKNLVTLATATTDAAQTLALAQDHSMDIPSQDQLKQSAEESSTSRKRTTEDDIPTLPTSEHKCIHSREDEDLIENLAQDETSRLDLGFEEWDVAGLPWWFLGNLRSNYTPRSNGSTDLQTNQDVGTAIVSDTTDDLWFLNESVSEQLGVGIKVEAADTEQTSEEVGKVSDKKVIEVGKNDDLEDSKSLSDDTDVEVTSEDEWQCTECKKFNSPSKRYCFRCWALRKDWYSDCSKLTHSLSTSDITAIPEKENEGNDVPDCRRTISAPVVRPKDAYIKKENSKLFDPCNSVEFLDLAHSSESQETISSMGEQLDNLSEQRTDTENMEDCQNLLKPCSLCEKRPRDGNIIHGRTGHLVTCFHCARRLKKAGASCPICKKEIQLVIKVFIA
# p53 (Homo sapiens), sequence (P04637 whole entry): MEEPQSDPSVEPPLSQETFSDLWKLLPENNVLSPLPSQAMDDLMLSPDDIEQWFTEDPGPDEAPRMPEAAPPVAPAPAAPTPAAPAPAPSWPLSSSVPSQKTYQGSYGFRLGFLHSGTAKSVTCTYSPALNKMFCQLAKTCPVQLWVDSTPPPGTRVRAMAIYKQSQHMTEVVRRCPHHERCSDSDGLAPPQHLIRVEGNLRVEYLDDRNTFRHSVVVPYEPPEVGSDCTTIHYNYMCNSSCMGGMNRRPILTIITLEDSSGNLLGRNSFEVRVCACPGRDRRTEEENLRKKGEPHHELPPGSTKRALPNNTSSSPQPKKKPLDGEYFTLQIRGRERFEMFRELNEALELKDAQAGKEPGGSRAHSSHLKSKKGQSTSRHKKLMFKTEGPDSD
# p73 (Homo sapiens), sequence (O15350 whole entry): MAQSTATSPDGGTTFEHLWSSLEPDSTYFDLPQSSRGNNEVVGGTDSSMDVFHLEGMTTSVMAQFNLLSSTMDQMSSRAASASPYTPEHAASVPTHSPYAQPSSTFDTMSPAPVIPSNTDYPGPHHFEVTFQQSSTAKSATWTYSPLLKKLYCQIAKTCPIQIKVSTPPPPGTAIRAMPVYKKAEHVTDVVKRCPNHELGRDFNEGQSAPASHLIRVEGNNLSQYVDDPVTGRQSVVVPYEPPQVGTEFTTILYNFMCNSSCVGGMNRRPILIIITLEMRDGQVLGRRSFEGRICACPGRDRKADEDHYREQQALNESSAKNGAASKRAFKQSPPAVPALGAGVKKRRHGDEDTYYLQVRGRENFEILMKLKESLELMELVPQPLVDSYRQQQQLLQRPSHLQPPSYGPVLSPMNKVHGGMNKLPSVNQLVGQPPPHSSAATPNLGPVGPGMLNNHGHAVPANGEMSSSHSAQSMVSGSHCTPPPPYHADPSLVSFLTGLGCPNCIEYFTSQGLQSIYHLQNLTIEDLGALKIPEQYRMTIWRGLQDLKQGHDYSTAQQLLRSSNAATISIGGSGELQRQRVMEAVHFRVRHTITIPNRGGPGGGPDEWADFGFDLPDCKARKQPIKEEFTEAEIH
substance,measurement,setting,value
Azurin (from UniProt P00282),Kd,p53 (Homo sapiens),1300 nM and 1200 nM
MDM2 (from UniProt Q00987),Kd,MDM4 (Homo sapiens) [1],390 nM
same,Kd,MDM4 (Homo sapiens) [2],1000 nM
p28 p28 peptide (from UniProt P00282),Kd,p73 (Homo sapiens),100 nM
same,Kd,p63 DBD (Homo sapiens),1000 nM
